Results published in PMC3902922 (Nucleic Acids Research, 2013).

Target: T1, Hop2-R176A–Mnd1 mutant complex (mouse, UniProt O35047 1-217; Q8K396 1-205, R176A)
T1 sequence 1: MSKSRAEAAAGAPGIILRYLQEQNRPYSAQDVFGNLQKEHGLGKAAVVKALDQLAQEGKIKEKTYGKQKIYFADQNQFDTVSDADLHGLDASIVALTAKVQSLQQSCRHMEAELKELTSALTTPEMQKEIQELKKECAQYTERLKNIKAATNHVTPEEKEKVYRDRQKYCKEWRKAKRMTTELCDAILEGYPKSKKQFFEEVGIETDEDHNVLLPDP
T1 sequence 2: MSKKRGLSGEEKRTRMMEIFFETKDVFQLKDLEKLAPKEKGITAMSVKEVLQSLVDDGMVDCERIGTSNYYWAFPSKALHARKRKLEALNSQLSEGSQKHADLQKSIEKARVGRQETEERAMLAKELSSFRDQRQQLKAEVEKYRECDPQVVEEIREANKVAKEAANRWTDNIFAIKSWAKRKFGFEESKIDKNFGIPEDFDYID
Assay: pull-down

B1: Human DMC1 (natural protein)
chain: MKEDQVVAEEPGFQDEEESLFQDIDLLQKHGINVADIKKLKSVGICTIKGIQMTTRRALCNVKGLSEAKVDKIKEAANKLIEPGFLTAFEYSEKRKMVFHITTGSQEFDKLLGGGIESMAITEAFGEFRTGKTQLSHTLCVTAQLPGAGGYPGGKIIFIDTENTFRPDRLRDIADRFNVDHDAVLDNVLYARAYTSEHQMELLDYVAAKFHEEAGIFKLLIIDSIMALFRVDFSGRGELAERQQKLAQMLSRLQKISEEYNVAVFVTNQMTADPGATMTFQADPKKPIGGHILAHASTTRISLRKGRGELRIAKIYDSPEMPENEATFAITAGGIGDAKE
- binding result: binds
